This experiment deals with 6P stabilised SARS-CoV-2 spike protein (SARS-CoV-2, original (Wuhan) strain, UniProt P0DTC2, stabilised). The experiment can be described thus: cryo-EM structure. As to conditions: both partners purified.

B1: REGN10987 Fab (Fab, V domains shown)
VH: QVQLVESGGGVVQPGRSLRLSCAASGFTFSNYAMYWVRQAPGKGLEWVAVISYDGSNKYYADSVKGRFTISRDNSKNTLYLQMNSLRTEDTAVYYCASGSDYGDYLLVYWGQGTLVTVSS
VL: QSALTQPASVSGSPGQSITISCTGTSSDVGGYNYVSWYQQHPGKAPKLMIYDVSKRPSGVSNRFSGSKSGNTASLTISGLQSEDEADYYCNSLTSISTWVFGGGTKLTVL
For B1, the binding result is “binds”.

For the origin of these results see doi:10.1101/2024.10.03.616038 (bioRxiv, 2024).
